Measurements: patent US20130331325A1 (NEW YORK UNIVERSITY, published 2013)

Tests used:
[1] = target: T1, ligand-binding domain of human FGFR1c (D142 to R365) (human, UniProt P11362 142-365); assay: SPR: FGFR1c ligand-binding domain over immobilized FGF21 (FIG. 10C)
T1 construct: range 142-365
T1 sequence (looked up): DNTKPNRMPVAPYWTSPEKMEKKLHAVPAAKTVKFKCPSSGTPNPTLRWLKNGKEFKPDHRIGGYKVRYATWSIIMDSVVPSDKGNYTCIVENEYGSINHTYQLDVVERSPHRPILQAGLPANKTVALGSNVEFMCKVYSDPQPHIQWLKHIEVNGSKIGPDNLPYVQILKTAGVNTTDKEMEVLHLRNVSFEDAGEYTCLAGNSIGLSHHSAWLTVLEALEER
Source text: (§1) FIGS. 10A-10D show overlays of SPR sensorgrams illustrating binding of FGFR1c to FGF2 (FIG. 10A), FGF19 (FIG. 10B), FGF21 (FIG. 10C), and FGF23 (FIG. 10D), and fitted saturation binding curves. Increasing concentrations of FGFR1c ligand-binding domain were passed over a biosensor chip containing immobilized FGF2, FGF19, FGF21, or FGF23. […] Increasing concentrations of αKlotho-FGFR1c complex were passed over a biosensor chip containing immobilized FGF23. […] FGF23^C-tail was immobilized on a biosensor chip and increasing concentrations of FGFR1c ligand-binding domain were passed over the chip. Dissociation constants (KDs) given in FIGS. 10A-10E were derived from the saturation binding curves.

[2] = target: T2, ligand-binding domain of human FGFR1c (D142 to R365) (human, UniProt P11362 142-365); assay: SPR
T2 chain: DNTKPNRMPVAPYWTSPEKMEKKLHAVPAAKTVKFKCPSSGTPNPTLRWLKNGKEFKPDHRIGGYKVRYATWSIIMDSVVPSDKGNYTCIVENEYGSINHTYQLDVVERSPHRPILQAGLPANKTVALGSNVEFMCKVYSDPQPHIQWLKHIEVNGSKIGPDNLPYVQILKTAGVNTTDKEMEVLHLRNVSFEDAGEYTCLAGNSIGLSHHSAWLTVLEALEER

[3] = target: T3, binary complex of FGFR1c ligand-binding domain with αKlotho ectodomain (murine; human, UniProt P11362 142-365); assay: SPR: immobilized FGF23; αKlotho-FGFR1c complex (FIG. 10E) against FGFR1c ligand-binding domain alone (FIG. 10D)
T3 construct: range 142-365; also called αKlotho-FGFR1c complex; binary αKlotho-FGFR1c complex; not shown: C-terminal FLAG tag
T3 sequence 1: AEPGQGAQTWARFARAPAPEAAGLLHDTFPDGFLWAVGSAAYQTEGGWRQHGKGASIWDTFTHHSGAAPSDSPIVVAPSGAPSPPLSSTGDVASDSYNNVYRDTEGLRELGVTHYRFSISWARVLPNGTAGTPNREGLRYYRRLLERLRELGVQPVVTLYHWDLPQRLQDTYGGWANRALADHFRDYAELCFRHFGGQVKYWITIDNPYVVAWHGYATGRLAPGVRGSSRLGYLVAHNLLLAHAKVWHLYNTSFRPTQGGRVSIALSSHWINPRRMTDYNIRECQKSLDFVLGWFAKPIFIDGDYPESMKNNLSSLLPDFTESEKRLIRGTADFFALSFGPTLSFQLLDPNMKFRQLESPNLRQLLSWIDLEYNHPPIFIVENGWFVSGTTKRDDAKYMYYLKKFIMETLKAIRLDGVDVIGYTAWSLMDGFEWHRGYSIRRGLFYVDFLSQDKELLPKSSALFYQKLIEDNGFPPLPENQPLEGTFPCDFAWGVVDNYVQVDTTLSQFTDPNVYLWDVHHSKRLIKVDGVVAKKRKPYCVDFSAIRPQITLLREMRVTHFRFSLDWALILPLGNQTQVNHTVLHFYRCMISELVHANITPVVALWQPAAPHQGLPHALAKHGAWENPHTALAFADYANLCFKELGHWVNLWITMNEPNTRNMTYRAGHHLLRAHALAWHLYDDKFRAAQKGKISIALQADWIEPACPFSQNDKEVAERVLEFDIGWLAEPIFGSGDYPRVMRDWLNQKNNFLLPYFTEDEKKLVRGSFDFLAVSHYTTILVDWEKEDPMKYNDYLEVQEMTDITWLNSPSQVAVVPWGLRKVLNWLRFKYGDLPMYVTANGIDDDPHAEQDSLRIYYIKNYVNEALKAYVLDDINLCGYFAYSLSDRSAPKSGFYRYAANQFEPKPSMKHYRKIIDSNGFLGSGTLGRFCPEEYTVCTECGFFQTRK
T3 sequence 2: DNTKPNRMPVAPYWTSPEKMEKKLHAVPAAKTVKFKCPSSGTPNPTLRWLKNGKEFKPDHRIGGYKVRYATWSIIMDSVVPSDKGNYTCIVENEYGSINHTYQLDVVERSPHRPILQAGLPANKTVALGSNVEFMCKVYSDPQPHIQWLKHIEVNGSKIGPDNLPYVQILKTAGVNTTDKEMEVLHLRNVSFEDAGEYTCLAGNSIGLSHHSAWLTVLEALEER
Source text: as §1
In the target tissue, Klotho co-receptors constitutively associate with cognate receptors of endocrine FGFs to offset the inherently low receptor-binding affinity of endocrine FGFs (FIGS. 10B-10D; Kurosu et al., J. Biol. Chem. 282:26687-26695 (2007); Kurosu et al., J. Biol. Chem. 281:6120-6123 (2006); Ogawa et al., Proc. Nat'l. Acad. Sci. U.S.A. 104:7432-7437 (2007); Urakawa et al., Nature 444:770-774 (2006), which are hereby incorporated by reference in their entirety). […]

[4] = target: T4, binary complex of FGFR1c ligand-binding domain with αKlotho ectodomain (human, UniProt P11362 142-365); assay: SPR
T4 chain 1: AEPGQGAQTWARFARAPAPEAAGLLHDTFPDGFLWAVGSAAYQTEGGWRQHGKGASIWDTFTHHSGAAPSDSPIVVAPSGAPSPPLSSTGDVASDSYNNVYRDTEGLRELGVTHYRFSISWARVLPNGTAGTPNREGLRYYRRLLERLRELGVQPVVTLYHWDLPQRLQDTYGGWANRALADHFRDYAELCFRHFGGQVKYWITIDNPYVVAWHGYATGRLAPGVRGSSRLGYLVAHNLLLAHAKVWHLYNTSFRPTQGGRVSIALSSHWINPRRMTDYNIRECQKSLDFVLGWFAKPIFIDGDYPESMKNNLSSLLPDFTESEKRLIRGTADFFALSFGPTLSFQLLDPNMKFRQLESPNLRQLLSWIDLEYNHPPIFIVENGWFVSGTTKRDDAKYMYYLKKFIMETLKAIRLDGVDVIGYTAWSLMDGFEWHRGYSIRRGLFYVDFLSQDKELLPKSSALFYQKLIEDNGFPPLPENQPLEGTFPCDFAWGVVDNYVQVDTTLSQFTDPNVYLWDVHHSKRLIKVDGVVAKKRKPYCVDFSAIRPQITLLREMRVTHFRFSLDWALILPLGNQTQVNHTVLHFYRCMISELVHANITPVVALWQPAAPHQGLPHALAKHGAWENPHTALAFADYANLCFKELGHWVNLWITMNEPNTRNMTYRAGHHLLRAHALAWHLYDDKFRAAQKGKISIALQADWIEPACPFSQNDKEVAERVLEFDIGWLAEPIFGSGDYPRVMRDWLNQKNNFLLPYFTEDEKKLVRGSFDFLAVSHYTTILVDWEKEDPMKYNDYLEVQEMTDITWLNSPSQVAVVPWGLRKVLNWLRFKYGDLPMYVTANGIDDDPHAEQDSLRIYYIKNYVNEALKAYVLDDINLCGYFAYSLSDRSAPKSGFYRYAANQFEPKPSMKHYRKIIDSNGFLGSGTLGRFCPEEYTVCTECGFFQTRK
T4 chain 2: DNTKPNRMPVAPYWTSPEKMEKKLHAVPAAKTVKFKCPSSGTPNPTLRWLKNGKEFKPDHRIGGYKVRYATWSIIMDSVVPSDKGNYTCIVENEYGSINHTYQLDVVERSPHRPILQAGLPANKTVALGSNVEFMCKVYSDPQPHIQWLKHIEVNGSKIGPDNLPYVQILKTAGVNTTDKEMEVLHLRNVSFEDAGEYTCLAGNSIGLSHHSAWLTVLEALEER

[5] = target: T1, ligand-binding domain of human FGFR1c …; assay: SPR: FGF23^C-tail immobilized on chip, increasing concentrations of FGFR1c ligand-binding domain passed over (FIG. 10F)
Source text: as §1

[6] = target: T3, binary complex of FGFR1c ligand-binding …; assay: SPR competition: increasing chimera with a fixed concentration of αKlotho-FGFR1c complex over immobilized FGF23 (competitor)
Source text: FIGS. 7A and 7B show overlays of SPR sensorgrams illustrating inhibition by FGF2^ΔHBScore-FGF23^C-tail (FIG. 7A) or FGF23 (FIG. 7B) of αKlotho-FGFR1c binding to FGF23 immobilized on a biosensor chip. Increasing concentrations of FGF2^ΔHBScore-FGF23^C-tail or FGF23 were mixed with a fixed concentration of αKlotho-FGFR1c complex, and the mixtures were passed over a FGF23 chip. […] FGF2 and αKlotho-FGFR1c complex were mixed at a molar ratio of 15:1, and the mixture was passed over a biosensor chip containing immobilized FGF23. FIGS. 7D and 7E show overlays of SPR sensorgrams illustrating no inhibition by FGF2^ΔHBScore-FGF23^C-tail (FIG. 7D) or FGF23 (FIG. 7E) of βKlotho-FGFR1c binding to FGF21. FGF2^ΔHBScore-FGF23^C-tail or FGF23 were mixed with βKlotho-FGFR1c complex at a molar ratio of 10:1, and the mixtures were passed over a biosensor chip containing immobilized FGF21. […] Wild-type mice and αKlotho knockout mice were given 0.21 mg and 0.51 mg of protein, respectively, per kg of body weight. Data are presented as mean±SEM; **, P<0.01; ***, P<0.001 by ANOVA. […]
To determine whether the FGF2^ΔHBScore-FGF23^C-tail and FGF2^ΔHBScore-FGF21^C-tail chimeras gained the ability to signal in a Klotho co-receptor-dependent, endocrine fashion, it was first analyzed whether these chimeras can form ternary complexes with FGFR1c and Klotho co-receptor. […]

B1: N-terminally hexahistidine-tagged, mature form of human FGF21 (H29 to S209) (ligand)
chain: HPIPDSSPLLQFGGQVRQRYLYTDDAQQTEAHLEIREDGTVGGAADQSPESLLQLKALKPGVIQILGVKTSRFLCQRPDGALYGSLHFDPEACSFRELLLEDGYNVYQSEAHGLPLHLPGNKSPHRDPAPRGPARFLPLPGLPPALPEPPGILAPQPPDVGSSDPLSMVGPSQGRSPSYAS
notes: also called native FGF21; not shown: N-terminal hexahistidine tag
[1]
  binding result: binds
[2]
  Kd: 2520 nM

B2: N-terminally hexahistidine-tagged, mature form of human FGF23 (Y25 to I251) with arginines 176 and 179 replaced with glutamine (ligand)
chain: YPNASPLLGSSWGGLIHLYTATARNSYHLQIHKNGHVDGAPHQTIYSALMIRSEDAGFVVITGVMSRRYLCMDFRGNIFGSHYFDPENCRFQHQTLENGYDVYHSPQYHFLVSLGRAKRAFLPGMNPPPYSQFLSRRNEIPLIHFNTPIPRQHTQSAEDDSERDPLNVLKPRARMTPAPASCSQELPSAEDNSPMASDPLGVVRGGRVNTHAGGTGPEGCRPFAKFI
notes: also called native FGF23; wild-type FGF23; not shown: N-terminal hexahistidine tag
[3]
  fold enhancement of the affinity of FGF23 for FGFR1c by αKlotho (against FGFR1c alone): > 20 fold
[2]
  Kd: 648 nM
[4]
  Kd: 27.4 nM

B3: N-terminally hexahistidine-tagged C-terminal tail peptide of FGF23 (S180 to I251) (peptide)
peptide: SAEDDSERDPLNVLKPRARMTPAPASCSQELPSAEDNSPMASDPLGVVRGGRVNTHAGGTGPEGCRPFAKFI
notes: also called FGF23^C-tail; not shown: N-terminal hexahistidine tag
[5]
  binding result: no binding

B4: FGF2^ΔHBScore-FGF23^C-tail chimera (designed binder)
chain: MAAGSITTLPALPEDGGSGAFPPGHFKDPKRLYCKNGGFFLRIHPDGRVDGVREKSDPHIKLQLQAEERGVVSIKGVSANRYLAMKEDGRLLASKSVTDECFFFERLESNNYNTYRSRKYTSWYVALDQTGQYVLGSKTGPGQKAILFLPMRNEIPLIHFNTPIPRQHTQSAEDDSERDPLNVLKPRARMTPAPASCSQELPSAEDNSPMASDPLGVVRGGRVNTHAGGTGPEGCRPFAKFI
notes: Core domain of FGF2 (M1 to M151, K128D/R129Q/K134V, C78S/C96S) joined to the C-terminal region of FGF23 (R161 to I251, R176Q/R179Q)
[6]
  binding result: binds
